In paper PMC9484220:

B1: AQP2 protein (eukaryotic expression, purified; Flag-Mcherry tag excised) (natural protein)
chain: MWELRSIAFSRAVFAEFLATLLFVFFGLGSALNWPQALPSVLQIAMAFGLGIGTLVQALGHISGAHINPAVTVACLVGCHVSVLRAAFYVAAQLLGAVAGAALLHEITPADIRGDLAVNALSNSTTAGQAVTVELFLTLQLVLCIFASTDERRGENPGTPALSIGFSVALGHLLGIHYTGCSMNPARSLAPAVVTGKFDDHWVFWIGPLVGAILGSLLYNYVLFPPAKSLSERLAVLKGLEPDTDWEEREVRRRQSVELHSPQSLPRGTKA

Columns and labels:
[1] = target: AQP2 protein (eukaryotic expression, purified; Flag-Mcherry tag excised) (UniProt P41181); experiment: SPR; BIAcore T200; AQP2 immobilised on CM5 chip by amine coupling (10 mM NaAc, pH 4.0); MIAC peptide injected; HBS-EP buffer; equilibrium Req values of 5 concentrations fitted to 1:1 binding
[2] = target: chemosynthetic peptide MIAC labeled by CY5; experiment: MST; CY5-labeled MIAC with AQP2 protein, incubated 5 min at room temperature, premium-coated capillaries, Monolith NT.115

Row | Molecule | Kd [1] | Kd [2]
1 | chemically synthesized MIAC polypeptide | 5.13 µM | –
2 | B1 | – | 6.92 µM
